# Reference: the nanobody polyreactivity screen of Harvey et al. (2022)
# Experiment: yeast display, Sf9 membrane polyspecificity reagent, FACS + sequencing; frameworks hold sequencing errors
# Outline: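 Nanobodies from a synthetic yeast display library (Saccharomyces cerevisiae BJ5465), induced 36–48 hours with galactose, were stained 1 hour at 4 °C with 10% biotinylated, detergent-solubilized Sf9 membrane reagent, enriched on streptavidin microbeads, then FACS-sorted. Anti-HA (expression) and streptavidin (reagent binding) fluorescence set low and high (top ~1%) gates. Polyreactivity labels come from the gate of origin. Genes were colony-PCR amplified, MiSeq 2 × 250 sequenced and filtered by CDR length.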
row,Sequence,polyreactivity (PSR sort gate)
1,QVQLVESGGGLVQAGGSLRLSCAASGSTFFTNAMGWYRQAPGKERELVAAITINDGSTFYADSVKGRFTISRDNAKNTVYLQMNSLKPEDTAVYYCNADGVDLYDYWGQGTQVTVSS,low polyreactivity
2,QVQLVESGGGLVQAGGSLRLSCAASGSTFGGYAMGWYRPAPGKERELVAAINRSGARTYYADSVKGRFTISRDNAKNTVYLQMNSLKPEDTAVYYCNKAQGSHGAYDYWGQGTQVTVSS,high polyreactivity
3,QVQLVESGGGLVQAGGSLRLSCAASGYTFPLYAMGLYRQAPGKERELVADINIGGASTYYADSVKGRFTISRDNAKNTVYLQMNSLKPEDTAVYYCAKEYYDGYFPTFDYDYWGQGTQVTVSS,low polyreactivity
4,QVHLVDSGGGLVQAGGSLRLSCPASGLTFPSNSMGCYRQAPGKERELVAAISKRGGRTYYADSVKGRFTISRDNAKNTVYLQMNSLKPEDTAVYYCATLYAYPGTVQYAGYNYWGQGTQVTVSS,high polyreactivity
5,QVQLVESGGGLVQAGGSLSLSCAASGRSFRIYPMGWYRPAPGKERELVATITWRAGSTYYADSVKGRFTISRDNAKNTVYLLMNSLTPEDTAVYYFAAGRQYGGYRYDYWGQGTQVTVSS,high polyreactivity
6,QLQLVESGRGLVQAGGSLRLSCAASGFTFRTYAKGWYRQAPGKERELVAAITVSGGTYYADSVKGRFTISRDNAKNTVYLQMNSLKPEDTAVYYCTAKRFRTGFDYWGQGTQVTVSS,low polyreactivity
7,QVQLVESGGGLVQAGGSLRLSCAASGFIFDNYAMGWYRQAPGKERELVAAISRSGGSTYYADSVKGRFTISRDNAKNTVYLQMNSLKPEDTAVYYCATSGPRGWSLHDYWGQGTQVTVSS,high polyreactivity
8,QVQLVESGGGLVQAGGSLRLSCAASGSIFVYNAMGWYRHAPGTERELVAAISRRGGSTYYADSVKGRFTISRDNAKNTVYLQMNSLKPEDTAVYYCAAFASATRYDYWGQGTQVTVSS,high polyreactivity
9,QFQLVESGGGLVQAGGSLRLSCAASAGNFNRYAMGWYRQAPGKEMELVAAISSSGGPTYYADSVKGRFTISRDNAKNTVYLQMNSLKPEDSAVYYCNARYPRLHRTYNYWGQGTQVTVSS,high polyreactivity
10,QVQLVESGGGLVQAGGSLRLSCAASGSTFWFNDMGWYRQAPGKEREFVAAISSIGGSTYYADSVKGRFTISRDNAKNTVYLQMNSLKPEDTAVYYCAADRLQYYNPYDYWGQGTQVTVSS,low polyreactivity
11,QVHLVESGGWLVQAGGSLRLSCAASGLTFYNYAMGWYRPAPGKEREFVAAISRSGGTTYYADSVKGRFTISRDNAKYTVYLQMISLKPEDTAVYYCNAQWWRYWPSQVIFDYWGQGSQVTVSS,high polyreactivity
12,QVQLVESGGGLVQAGGSLRLSCAAYGSIFEGNPMGWYRQAPGKERELVASISGDGSTNYADSVKGRFTISRDNAKNTVYLQMNSLKPEDTAVYYCNADTISEPGFHMDYWGQGTQVTVSS,low polyreactivity
13,QVQIVESGPGLVQAGASLSLSCAASGSIFRPYAMGWYIQAPGKDRELVAAITWSGGRTYYADSVKGRFTISRDNAKNTVYLKMNSLKREDTAVYYCAADDSEGFDYWGQGNQVTVSS,high polyreactivity
14,QVHLVESGGGLVQAGGSLRLSCAASGAMGWYRQAPGKERELVAAISSGNTNYADSVKGRFTISRDNAKNTVYLQMNSLKPEDTAVYYCAAEQPYGQKNTGLGVIDLDYWGQGTQVTVSS,low polyreactivity
15,QVQLVESGGGLVQAGGSLRFSCAASGRTFTYYAMGWYRQAPGKERELVASIRKSGASTYYADSVKGRFTISRDKAKNTVYLQMNSLKPEETAVYYCNTAKGHGRYEYWGQGSQVTVSS,high polyreactivity
16,QVQLEESGGGLVQAAGSLRLRCAASGSTLTFNAMGWYRHAPGKERELVAAISWSDTDTYYADSVKGRFTISRDNAKNTVYLQMNSLKPEDTAVYYCASTLSAYEMDYWGQGTQVTVSS,low polyreactivity
17,QVQLVESGGGLVQAGGSLRLSCAASGFTFYSYAMGWNRQAPGKERELVAAISGGGGSTYYADSVKGRFTISRDNAKNTVYLQMNSLKPEDTAVYYCAKRPAYRGYGLGYYWGQGTQVTVSS,high polyreactivity
18,QVQLVESVGGLVQAGGSLRLSCAASGSILQHYAMGWYRQAPGKETELVASISWTGGSTYYADSVKGRFTISRDNAKNTVYLQMNCLKPEDTAVYYCAARRYRYYSRGSWGQGTQVTVSS,high polyreactivity
19,QVQLVESGGGLVQAGGSLRLSCAASGRTFINNAMGWYRQAPGKERELVAAISWDGGRTYYADSVKGRFTISRDNAKNTVYLQMNSLKPEDTAVYYCNAQPNYAYHGEDDYWGQGTQVTVSS,high polyreactivity
20,QVQLVESGGGLVQAGGSLRLSCAASGFTFLRNAMGWYRQAPGKERELVATISTSGGSTYYADSVKGRFTISRDNAKITVYLQMNSLKPEDTAVYYCAKRYRTRDSGYDYWGQGTQVTVSS,high polyreactivity
21,QVQLVESGGGLVQAGGSLRLSCAASGSIFTHNAMGWYRQAPGKVREFVAAISSGGSTNYADSVKGRFTISRDNAKNTVYSQMNSLKPEDTAVYYCAKSIDGWYWRRRRYDYWGQGTQVTVSS,low polyreactivity
22,QVQLVESGGCLVQAGGSLSLSCAASGFIFDHNAMGWYRQAPGKERELVAAITWRGDSTYYADSVKGRFTISRDTAKNSVYVQMNSLKPEDTAVYYCNADAILVYYGKLDYWGQGTQVTVSS,low polyreactivity

row,Sequence,polyreactivity (PSR sort gate)
1,QVQLVESGGGLVQAGGSLRLSCAASGSIFADYVMGWYRQAPGKERELVAAISRGGGRTYYADSVKGRFTISRDNAKNTVYLQMNSLKPEDTAVYYCAARGYPTNYDPGYTYDYWGQGTQVTVSS,high polyreactivity
2,QVQLVESGGGLVQAGGSLRLSCAASGFTFDFYAMGWYRQAPGKERELVAAINWSGSSTYYADSVKGRFTISRDTAKNTVYLQMNSLKPEDTAVYYCAAQVYYTLFPDVYTMYYWGQGTQVTVSS,high polyreactivity
3,QVQLVVSGGGLVQGGGSLRLSWAASGFILALNAMGWYIQAPGKEREFVADISWSGDSTYYADSVKGRFTISRDNAKNTFYLQMNSLKPEDTAVYYCAADPYYNWGYYYWGQGTQVTVSS,low polyreactivity
4,QGQLVESGAGLVKAGGSLRISCAASGYTFPSNARAWYRHAPGTPRQLVAAISSGGRTNYADSLKGRFTISRDNAKNTVYLQMNRLKPEDTAVYNCNADGGPGYPSAYDYWVQGTQVTVSS,low polyreactivity
5,QVQLVQSGGGLVQAGGSLRLSCAASGRTFPIYAMGWYRQAPWKERELVAAITRGGRTNYADSVMGRFTISRDNAKNTVYLQMNSLKPEDTAVYYCDARTYGTYLYAEYDYWGQCTQVTVSS,high polyreactivity
6,QVQLVESGGGLVQAGGSLRLSCAASGNTFYGYAMGWYRQAPGKERELVASITLSGDSMYYADSVKGRFTISRDNAKNTVYLQMNSLIPDDTAVYYCNADWYFQYPYDYWGQGTQVSVSS,low polyreactivity
7,QVQLVESGGCLVQAGGSLRLSCAASGSTFGGNAMGWYRQAPGKERELVAAITIGGRTNYADSVKGRFTISRDNAKNTVYLQMNSLKPEDTAVYYCAKDRDQWQDYWGQGSQVTVSS,low polyreactivity
8,QVQLVESVGCLVQPGGSLRLSCATSGSIFLLYARGWYRQPPGKERELVAAITSSGGSTNYADSVKGRITISRDTAKNTVYLQMNSLKPEDTEVYYSATAPYAYTILGSRFDYWGKGTQVTVSS,low polyreactivity
9,QVQLVESGGGLVQAGGSLRLSCAASGFTFKYNAMGWYRQAPGKERELVAAISSSGSTNYADSVKGRFTISRDNAKNTVYLQMNSLKPEDTAVYYCAARWRSVLAAGTRPVSFDYWGQGTQVTVSS,low polyreactivity
10,QVQLVESGGGLVQAGGSLRLSCAASGIIFTKYVMGWYRQAPGKERELVAAINTDGGSTRYADSVKGRFTISRDNAKNTVYLQKNSLKPEDTAVYYCAAVSSRRPGYEYYYWGQGTQVTVSS,high polyreactivity
11,QVQLVESGGGLVQAGGSLRLSCAASGRTFVVNYMGWYRQAPGKERELVATINVSGGSTSYADSVKGRFTISRDNAKNTVYLQMNSLKPEDTAVYYCNVDTYVEYPHDYWGQGTQVTVSS,low polyreactivity
12,QVQLVESGGGLVQAGGSLRLSCAASGRIFSYYAMGWYRQAPGKERELVASITWSGGSTYYADSVKGRFTISRDYAKNTVYLQMNRLKPEDTAVYYCNTAVLAPYDSGYWGQGTQVTVSS,low polyreactivity
13,QVQLVESGGGLVQAGGSLSLSCAASGSIFLYNAMGWYRPAPGKERELVAAISKSGGSTYYADSVKGRFTISRDNAKNTVYLQMNSLKPEDTAFYYCAAGYGRRIRYGSEYDYWGQGTQVTVSS,low polyreactivity
14,QVQLVESGGGLVQAGGSLRLSCASSGSIFFLYAMGWYRQAPGKERELVAAITGSGSRTYYADSVKGRFTISRDNEKNTVYLHMNSLKPEYTAVYYCAARYYGAYGKQPRARYGYWGKGTQVTVSS,high polyreactivity
15,QVQLVESGGGLVQAGGSLRLSCAASGTISVFYAKGWYRQAPGKEREFVAAISWRGGRTYYADSVKARFTISRDNAKNTVYLQMNSLKPEDTAVYYCAKDIVRGRSSRYDYWGQGTQVTVSS,high polyreactivity
16,QVQLVESGGGLVQAGGSLRLSCAASGSILWLYVMGWYRQAPGKERELVATITSSGGSTYYADSVKGRFTISRDNAKNTVYLQKNSLKPEDTAVYYSAAQTYNSYDYWGQATQVTVSS,low polyreactivity
17,QVQLVESGGGLVQAGGSLRLSCAASGRIFSYYTMGWYRQAPGKERELVAAITSGDSTNYADSVKGRFTISRDNAKNTVYLQMNSLKPEDTAVYYCNARYSGWRSRVGSSHRPDGYWGQGTQVTVSS,high polyreactivity
18,QVQLVESGGGLVQAGGSLRLSCAASGRTFYDNAMGWYRQAPGKERELVAAISWSGGSTYADSVKGRFTISRDNAKNTVYLQMNSLKPEDTAVYYCNADAWLASGYRYDYWGQGTQVTVSS,low polyreactivity
19,QVQLVESGGGLVQAGGSLRLSCAASGLTFPQYAMGWYIQAPGKERELVAAISKTGGSTYYADSVKGRFTISRDNAKNTVYLLMNSLKPEDTAVYYCAAGSSVTPYRYYYWGQGTQVTVSS,high polyreactivity
20,QVQLVESGGGLVQAGGSLRLSCAASGSIFKQNAMGWYRQAPGKERELVASIRASGDRTYYADSVKGRFTISRDNAKNPVYLQMNSLKPEDSAVYYCAARRVRTRGYNYWGQGTQVTVSS,high polyreactivity
21,QVQLVESGGGVVQAGGSLRLSSAASGISFAYYAMGWYRQAPGKERELVASITNTGSTYYADSVKGRFTISRDNAKNSVYLEMTSLKPEDTAVYYCNAVLSSNTKWRYPGDDWGQGTQVTVSS,low polyreactivity
